A word on the Kd: it is the free concentration of one partner at which half of the binding sites on the other are occupied at equilibrium, for simple one-to-one binding. Higher therefore signals lower affinity.

“And” between values parts separate entries of the source, which are not always exact repeats. Equal values may be shown once. Read-outs that look alike come from different tables or passages of the source.

The target in assay [1] is T1, EDIII-DV3 (E protein domain III of dengue virus serotype DV-3) (dengue virus serotype DV-3, UniProt P27915 571-678).
T1 construct: also called DENV-3; EDIII of DV-3
The assay can be described thus: competition ELISA. In general terms: In an ELISA, binding on a coated surface is turned into a signal by an enzyme label.

Assay [2] addresses T2, EDIII-DV2 (E protein domain III of dengue virus serotype DV-2) (dengue virus serotype DV-2, UniProt P14337 573-677).
T2 construct: also called DENV-2; EDIII of DV-2
The assay can be described thus: competition ELISA.

Assay [3] addresses T3, EDIII-DV1 (E protein domain III of dengue virus serotype DV-1) (dengue virus serotype DV-1, UniProt P17763 573-680).
T3 construct: also called DENV-1; EDIII of DV-1
T3 chain: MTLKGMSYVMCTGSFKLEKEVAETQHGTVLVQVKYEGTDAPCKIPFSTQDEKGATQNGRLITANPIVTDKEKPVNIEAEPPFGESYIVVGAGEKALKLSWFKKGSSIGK
In words: competition ELISA.

In assay [4] the target is T1, EDIII-DV3 (E protein domain III of …).
Assay [5] deals with T4, EDIII-DV4 (E protein domain III of dengue virus serotype DV-4) (dengue virus serotype DV-4, UniProt P09866 572-679).
T4 construct: also called DENV-4
In words: affinity for EDIII-DV-4, tables of FIG. 5; method not stated.

Assay [6] has as its target T4, EDIII-DV4 (E protein domain III of …).
The target is the same in assay [7]. The source holds these as a separate data set.
Assay [8] has the same target. In words: competition ELISA; column 'EDIII-DV4'.
The target is the same in assay [9]. This is another data set of the same source.
For assay [10] the target is unchanged. The assay can be described thus: competition ELISA; column 'EDIII-DV4 [1/7]'.
Assay [11] addresses T1, EDIII-DV3 (E protein domain III of …). The source holds these as a separate data set.
Assay [12] has as its target T3, EDIII-DV1 (E protein domain III of …).
Assay [13] addresses dengue virus serotype DV-4 (live virus, representative strain not named; E protein) (dengue virus serotype DV-4). In words: cell-based or functional assay.
In assay [14] the target is T5, Mexico/1977 (BC287/97)* (serotype IV EDIII) (Dengue virus 4).
T5 construct: isolated EDIII protein; also called EDIII of DENV-4 Mexico/1997 (BC287/97); DENV-4 BC2
In words: Kd table, method not stated; Ag DENV-4 BC2.

In assay [15] the target is T6, New Caledonia/2009 (serotype IV EDIII).
T6 construct: also called ED3-DV4/NewCal09; DENV-4 NC
T6 E protein domain III (EDIII): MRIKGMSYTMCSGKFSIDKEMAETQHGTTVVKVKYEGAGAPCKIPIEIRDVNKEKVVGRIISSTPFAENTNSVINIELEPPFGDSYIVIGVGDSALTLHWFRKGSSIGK
In words: Kd table, method not stated; Ag DENV-4 NC.

Assay [16] addresses T7, New Guinea/1944 (NGC)* (serotype II EDIII) (Dengue virus 2).
T7 construct: isolated EDIII protein; also called EDIII of DENV-2 NGC
The assay can be described thus: Kd table, method not stated; Ag DENV-2 NGC.

Assay [17] deals with T2, EDIII-DV2 (E protein domain III of …).
Assay [18] has as its target T8, Peru/1995 (serotype II EDIII).
T8 construct: also called ED3-DV2/Peru95; DENV-2 Peru
In words: Kd table, method not stated; Ag DENV-2 Peru.

Assay [19] addresses T9, Singapore/2008 (serotype II EDIII).
T9 construct: also called ED3-DV2/Sing08; DENV-2 Sing
The assay can be described thus: Kd table, method not stated; Ag DENV-2 Sing.

For assay [20], the target named is T10, Singapore/2009 (serotype III EDIII).
T10 construct: also called ED3-DV3/Sing09; DENV-3 Sing
T10 E protein domain III (EDIII): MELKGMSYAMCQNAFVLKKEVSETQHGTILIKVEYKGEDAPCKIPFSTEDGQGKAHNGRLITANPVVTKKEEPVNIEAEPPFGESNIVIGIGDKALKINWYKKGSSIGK

The target in assay [21] is T11, Philippines/1956 (H87)* (serotype III EDIII) (Dengue virus 3).
T11 construct: isolated EDIII protein

Assay [22] concerns the target ED3-DV4/H241/Phil56 (EDIII of DENV-4 strain H241) (dengue virus serotype DENV-4, strain …, UniProt Q58HT7 572-679). In words: Kd table, method not stated; Ag DENV-4 Phil.
The target of assay [23] is T12, Nicaragua/2010 (serotype III EDIII).
T12 construct: also called ED3-DV3/Nicaragua10; DENV-3 Nic
T12 E protein domain III (EDIII): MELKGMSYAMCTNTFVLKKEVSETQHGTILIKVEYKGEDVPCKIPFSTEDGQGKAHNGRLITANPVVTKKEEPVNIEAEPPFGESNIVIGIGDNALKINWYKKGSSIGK

The target in assay [24] is T13, Singapore/2010 (serotype IV EDIII).
T13 construct: also called ED3-DV4/Sing10; DENV-4 Sing
T13 E protein domain III (EDIII): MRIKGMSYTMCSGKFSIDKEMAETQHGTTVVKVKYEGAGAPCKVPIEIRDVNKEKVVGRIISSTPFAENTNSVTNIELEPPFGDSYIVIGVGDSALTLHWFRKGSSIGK
In words: Kd table, method not stated; Ag DENV-4 Sing.

In assay [25] the target is T3, EDIII-DV1 (E protein domain III of …).
Assay [26] addresses T1, EDIII-DV3 (E protein domain III of …). The source holds these as a separate data set.

B1: antibody C98 (antibody, V domains shown)
VH: QVQLVQSGAEVKKPGASVKVSCKASGFNIKDVYMSWVRQAPEQGLEWMGRIDPENGDTKYDPKLQGRVTMTADTSTNTAYMELRSLRSDDTAVYYCVRGWEGFAYWGQGTLVTVSS
VL: DIVMTQSPASLAVSLGERATISCRASENVDKYGNSFMHWYQQKPGQPPKLLIYRASELQWGVPDRFSGSGSGTDFTLTISSLQAEDVAVYYCQRSNEVPWTFGQGTKLEIK
With B1, the Kd in assay [1] is 1.29 nM; in assay [2], < 0.1 nM; in assay [3], < 0.1 nM; in assay [4] it was 1.21 nM.

B2: antibody D48 (antibody, V domains shown)
VH: VKLLEQSGAEVKKPGASVKVSCKASGFNIKDVYMSWVRQAPEQGLEWMGRIDPENGDTKYDPKLQGRVTMTADTSTNTAYMELRSLRSDDTAVYYCARGWEGFAYWGQGTLVTVSS
VL: DIVMTQSPASLAVSLGERATISCRASENVDKYGNSFMHWYQQKPGQPPKLLIYRASELQWGVPDRFSGSGSGTDFTLTISSLQAEDVAVYYCQRSNEVPWTFGQGTKLEIK
As to B2, the “fold improvement in affinity relative to an antibody with a fully humanized N-terminus” value in assay [5] was ~2 fold. The Kd in assay [6] came to 7.49 nM.

B3: antibody D98 (antibody, V domains shown)
VH: QVQLVQSGAEVKKPGASVKVSCKASAFNIKDVYMSWVRQAPEQGLEWMGRIDPENGDTKYDPKLQGRVTMTADTSTNTAYMELRSLRSDDTAVYYCARGWEGFAYWGQGTLVTVSS
VL: DIVMTQSPASLAVSLGERATISCRASENVDKYGNSFMHWYQQKPGQPPKLLIYRASELQWGVPDRFSGSGSGTDFTLTISSLQAEDVAVYYCQRSNEVPWTFGQGTKLEIK
Molecule B3 displayed a Kd in assay [7] of 16.9 nM.

B4: antibody D118 (antibody, V domains shown)
VH: QVQLVQSGAEVKKPGASVKVSCKASGWNIKDVYMSWVRQAPEQGLEWMGRIDPENGDTKYDPKLQGRVTMTADTSTNTAYMELRSLRSDDTAVYYCARGWEGFAYWGQGTLVTVSS
VL: DIVMTQSPASLAVSLGERATISCRASENVDKYGNSFMHWYQQKPGQPPKLLIYRASELQWGVPDRFSGSGSGTDFTLTISSLQAEDVAVYYCQRSNEVPWTFGQGTKLEIK
With B4, the Kd in assay [8] was 24.4 nM; in assay [9] it was 12.6 nM; in assay [1], 9.07 nM; in assay [3] it was < 0.1 nM; in assay [10], 12.6 nM.

B5: antibody B11 (antibody, V domains shown)
VH: VKLLEQSGAELVKPGASVRLSCTAGFNIKDTYMSWVKQRPEQGLEWIGRIDPENGDTKYDPKFQGKATITADTSSNTAYLHLSSLTSGDTAVYYCSRGWEGFAYWGQGTLVTVSA
VL: ELVMTQTPASLAVSLGQRATISCRASENVDKYGNSFMHWYQQKAGQPPKLLIYRASELQWGIPARFSGSGSRTDFTLTINPVEADDVATYFCQRSNEVPWTFGGGTKLEIK
B5: the Kd in assay [11] was 2.98 nM; in assay [12], < 0.1 nM. For the same molecule, the “IC50, focus reduction neutralization test (FRNT), DV-4” value in [13] fell in the range of 0.5 to 1.4 µg/mL.

B6: antibody A11 (antibody, V domains shown)
VH: VKLLEQSGAELVKPGASVRLSCTASGFNIKDTYMSWVKQRPEQGLEWIGRIDPENGDTKYDPKFQGKATITADTSSNTAYLHLSSLTSGDTAVYYCSRGWEGFAYWGQGTLVTVSA
VL: ELVMTQTPASLAVSLGQRATISCRASENVDKYGNSFMHWYQQKAGQPPKLLIYRASELQWGIPARFSGSGSRTDFTLTINPVEADDVATYFCQRSNEVPWTFGGGTKLEIK
notes: also called mAb A11; 4E5A
Take B6: the Kd in assay [14] is 86.2 nM; in assay [15], 202 nM; in assay [16], < 0.1 nM; in [11] it was 18 nM; in assay [17], < 0.1 nM; in assay [12], 0.269 nM. Also, the Kd in [18] was 0.39 nM; in assay [19] it was < 0.1 nM; in [1] it was 16.8 nM and 18 nM; in [3] it was 0.35 nM and 0.269 nM; in [20] it was 7.5 nM; in assay [21] it was 14.1 nM. Further, the Kd in [22] came out at 5080 nM; in assay [23], 32.1 nM; in [24], 136 nM.

B7: mouse mAb 4E11 (antibody, V domains shown)
VH: VKLLEQSGAELVKPGASVRLSCTASGFNIKDTYMSWVKQRPEQGLEWIGRIDPANGDTKYDPKFQGKATITADTSSNTAYLHLSSLTSGDTAVYYCSRGWEGFAYWGQGTLVTVSA
VL: ELVMTQTPASLAVSLGQRATISCRASENVDRYGNSFMHWYQQKAGQPPKLLIYRASNLESGIPARFSGSGSRTDFTLTINPVEADDVATYFCQRSNEVPWTFGGGTKLEIK
notes: also called antibody 4E11
With B7, the Kd was 40800 nM in assay [14]; 5.2 nM in [16]; 0.33 nM in [25]; 21.8 nM in assay [21]; 21.8 nM in assay [26].

Source of the values: patent US20240425569A1 (VISTERRA, published 2024).
